Here are results for 1 molecule from article PMC8764033, “Single-molecule analysis of specificity and multivalency in binding of short linear substrate motifs to the APC/C” (Nature Communications, 2022).

Where “and” joins values, the source holds several entries; their conditions need not be identical. Equal entries are not always repeated.

For assay [1], the system named is APC/C^Apc10-4A, Cdh1. The assay is described as follows: SMOR assay, yeast APC/C^Apc10-4A, Cdh1. It counts as binding, Saccharomyces cerevisiae. The protocol:
Yeast strains were derivatives of W303 and are listed in Supplementary Table 2. For APC/C purification, we used a strain carrying Cdc16-TAP and lacking Cdh1 (DOM1126); in most experiments, the strain also carried Apc1-GFP (NHY13). Yeast were grown in YPD media to OD600 = 0.8, collected and flash-frozen. Cells were lysed by bead beating in lysis buffer A (50 mM HEPES pH 7.5, 150 mM KCl, 10% glycerol, 0.2% Triton X-100, 63 µM B-glycerophosphate, 48 µM sodium fluoride, 1 µg ml^−1 pepstatin A, 1 µg ml^−1 leupeptin, 1 µg ml^−1 aprotinin, 1 mM PMSF, 1 mM DTT, 0.5 mM EDTA) and APC/C was purified using magnetic IgG beads. The beads were washed using wash buffer A (20 mM HEPES pH 7.5, 150 mM KCl, 10% Glycerol, 0.05% Triton X-100). After incubation with purified Cdh1 or Cdc20, the APC/C was cleaved off the beads with TEV protease in wash buffer A with 0.05% Tween-20 (for single-molecule studies) or 0.05% Triton X-100 (for ensemble assays such as ubiquitylation) and used immediately.
For all SMOR experiments, 24 × 50 mm high precision glass coverslips (Bioscience Tools) and drilled microscope slides were passivated with a combination of PEG and PEG-biotin (coverslips) or PEG only (slides) following a previously published protocol for SiMPull[31]. Reaction chambers (~20 µl) were created using double-sided tape and epoxy. Protein was immobilized on the surface with 0.2 mg ml^−1 NeutrAvidin in buffer C (20 mM HEPES pH 7.5, 150 mM KCl, 10% glycerol, 0.05% Tween-20, 1 mM DTT). Excess NeutrAvidin was washed away and incubated with either biotin-conjugated mouse monoclonal anti-Strep-Tag II antibody (LSBio, Cat. No. LS-C203632-100) or biotin-conjugated rabbit polyclonal anti-GFP antibody (Rockland, Cat. No. 600-406-215) diluted in buffer C + BSA (0.1 mg ml^−1; Molecular Biology Grade Bovine Serum Albumin). Activator WD40 and activated APC/C (typically 50 µl containing about 65 ng APC/C, of which only a small fraction is immobilized on the glass) were immobilized using anti-Strep-Tag II, while APC/C alone was immobilized with anti-GFP. SMOR results were similar when performed in the buffer (wash buffer B) used in polarization anisotropy.
To capture dynamic protein–protein interactions, dye-labeled substrate diluted in buffer C + BSA was added to the chamber containing immobilized proteins. Interactions were imaged by TIRF microscopy as described below. For optimal signal-to-noise ratio, peptide concentration was no greater than 1 nM. […]
Microscopy was performed with a Nikon Eclipse TE2000-E with Perfect Focus with a 100 × 1.49na oil, Apo TIRF DIC N2, 0.13-0.2, WD0.12 objective. Movies were recorded using the Andor iXon DU-897E-CSO. […]

Assay [2] deals with APC/C. To be noted: APC/C^Cdc20 vs APC/C^Cdh1; cited from earlier work. The text has this: We find that the yeast securin ...
Assay [3] concerns APC/C^Cdh1. As to the kind of experiment: Ensemble binding of radiolabeled Hsl1 fragments to APC/C^Cdh1 on magnetic beads. Further details: species or system yeast. The text has this: Supplementary Fig. 2: APC/C activity with tagged substrates a, Methods for analysis of APC/C activity and substrate binding. b, APC/C ubiquitylation assay with ra d io lab e le d f u ll-len g th yS e cu rin , co mpa rin g wild-type APC/CCdh1 an d AP C/ CCdh1 with a GFP ta g o n A p c1 . c, Comparison of activities with APC/CCdh1, using either wild-type Cdh1 or Cdh1 with the N-terminal 2XStrep-Tag II. d, Comparison of activities with APC/CCdh1 and the Hsl1 fragment (667-872) with and without the C-terminal Halo tag. e, Binding of radiolabeled Hsl1 fragments to yeast APC/CCdh1 immobilized on magnetic beads. First lane (Inp, input) indicates the amount of labeled protein added to the beads prior to washing, second lane (+) indicates amount bound, and third lane (-) indicates background binding in absence of APC/CCdh1. f, Ubiquitylation of Halo-tagged Hsl1 fragment with APC/CCdh1 an d A P C/ CCdc20. Experiments we re pe rfo rme d o n ce (b, c) or twice ( d-f). Source data are provided as a Source Dat a file.
(1 picture or pasted object on this page, not shown here)

Chain of APC/C^Apc10-4A, Cdh1 (P53197 whole entry): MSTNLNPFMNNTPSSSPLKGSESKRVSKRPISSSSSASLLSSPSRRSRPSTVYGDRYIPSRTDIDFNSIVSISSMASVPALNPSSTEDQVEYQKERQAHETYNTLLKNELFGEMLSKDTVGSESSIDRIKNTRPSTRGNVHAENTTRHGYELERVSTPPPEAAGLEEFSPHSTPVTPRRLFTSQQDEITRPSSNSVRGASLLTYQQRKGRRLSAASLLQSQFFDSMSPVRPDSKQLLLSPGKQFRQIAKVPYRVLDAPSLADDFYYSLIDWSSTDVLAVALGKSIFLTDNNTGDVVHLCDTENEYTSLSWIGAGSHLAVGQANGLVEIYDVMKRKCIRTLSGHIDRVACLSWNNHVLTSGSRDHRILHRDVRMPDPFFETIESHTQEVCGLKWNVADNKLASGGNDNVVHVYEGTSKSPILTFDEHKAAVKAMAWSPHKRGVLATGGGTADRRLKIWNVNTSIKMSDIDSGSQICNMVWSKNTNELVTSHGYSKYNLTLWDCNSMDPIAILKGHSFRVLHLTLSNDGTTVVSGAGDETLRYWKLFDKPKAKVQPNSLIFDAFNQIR

B1: Hsl1^Halo KEN & D: Hsl1 fragment (amino acids 667–872) with C-terminal HaloTag, JF549-labeled (protein)
chain: QNSASKRSLYSLQSISKRSLNLNDLLVFDDPLPSKKPASENVNKSEPHSLESDSDFEILCDQILFGNALDRILEEEEDNEKERDTQRQRQNDTKSSADTFTISGVSTNKENEGPEYPTKIEKNQFNMSYKPSENMSGLSSFPIFEKENTLSSSYLEEQKPKRAALSDITNSFNKMNKQEGMRIEKKIQREQLQKKNDRPSPLKPIQ
modifications: JF549 or JF646 dye covalently bound to the HaloTag; left off: HaloTag, C-terminal, kept | TAP, C-terminal, cleaved
notes: Hsl1 fragment (amino acids 667–872) with C-terminal HaloTag, JF549-labeled
As for B1, the “binding (in words)” value in assay [1] is reported as “This boost in affinity was not seen in the Apc10-4A mutant”. Besides, the “Dwell Time” value in assay [1] (Supplementary Table 1, replicate 1 (movie listed first)) was 42.881 ± 2.489 s; in assay [1] (Supplementary Table 1, replicate 2 (movie listed second)), 75.919 ± 3.159 s. In addition, the mean dwell time in assay [1] (representative of two independent experiments, ± SE, ligand ≤1 nM, buffer C + BSA) is 75.9 ± 3 s and 75.9 s. Further, the “processivity of ubiquitylation (in words)” value in assay [2] is recorded as “more processively modified by APC/C^Cdh1”. Moreover, the “binding to APC/C (in words)” value in assay [3] was “HaloTag does not affect ubiquitylation or binding”.
